B1: TAP1: known TAP1 subunit (TAP1 A allele cDNA) (protein)
chain: MASSRCPAPRGCRCLPGASLAWLGTVLLLLADWVLLRTALPRIFSLLVPTALPLLRVWAVGLSRWAVLWLGACGVLRATVGSKSENAGAQGWLAALKPLAAALGLALPGLALFRELISWGAPGSADSTRLLHWGSHPTAFVVSYAAALPAAALWHKLGSLWVPGGQGGSGNPVRRLLGCLGSETRRLSLFLVLVVLSSLGEMAIPFFTGRLTDWILQDGSADTFTRNLTLMSILTIASAVLEFVGDGIYNNTMGHVHSHLQGEVFGAVLRQETEFFQQNQTGNIMSRVTEDTSTLSDSLSENLSLFLWYLVRGLCLLGIMLWGSVSLTMVTLITLPLLFLLPKKVGKWYQLLEVQVRESLAKSSQVAIEALSAMPTVRSFANEEGEAQKFREKLQEIKTLNQKEAVAYAVNSWTTSISGMLLKVGILYIGGQLVTSGAVSSGNLVTFVLYQMQFTQAVEVLLSIYPRVQKAVGSSEKIFEYLDRTPRCPPSGLLTPLHLEGLVQFQDVSFAYPNRPDVLVLQGLTFTLRPGEVTALVGPNGSGKSTVAALLQNLYQPTGGQLLLDGKPLPQYEHRYLHRQVAAVGQEPQVFGRSLQENIAYGLTQKPTMEEITAAAVKSGAHSFISGLPQGYDTEVDEAGSQLSGGQRQAVALARALIRKPCVLILDDATSALDANSQLQVEQLLYESPERYSRSVLLITQHLSLVEQADHILFLEGGAIREGGTHQQLMEKKGCYWAMVQAPADAPE
B2: TAP1/TAP2: previously known TAP transporter, heterodimer of the TAP1 and TAP2 gene products (protein)
chain 1: B1 chain
chain 2: MRLPDLRPWTSLLLVDAALLWLLQGPLGTLLPQGLPGLWLEGTLRLGGLWGLLKLRGLLGFVGTLLLPLCLATPLTVSLRALVAGASRAPPARVASAPWSWLLVGYGAAGLSWSLWAVLSPPGAQEKEQDQVNNKVLMWRLLKLSRPDLPLLVAAFFFLVLAVLGETLIPHYSGRVIDILGGDFDPHAFASAIFFMCLFSFGSSLSAGCRGGCFTYTMSRINLRIREQLFSSLLRQDLGFFQETKTGELNSRLSSDTTLMSNWLPLNANVLLRSLVKVVGLYGFMLSISPRLTLLSLLHMPFTIAAEKVYNTRHQEVLREIQDAVARAGQVVREAVGGLQTVRSFGAEEHEVCRYKEAKEQCRQLYWRRDLERALYLLIRRVLHLGVQMLMLSCGLQQMQDGELTQGSLLSFMIYQESVGSYVQTLVYIYGDMLSNVGAAEKVFSYMDRQPNLPSPGTLAPTTLQGVVKFQDVSFAYPNRPDRPVLKGLTFTLRPGEVTALVGPNGSGKSTVAALLQNLYQPTGGQVLLDEKPISQYEHCYLHSQVVSVGQEPVLFSGSVRNNIAYGLQSCEDDKVMAAAQAAHADDFIQEMEHGIYTDVGEKGSQLAAGQKQRLAIARALVRDPRVLILDEATSALDVQCEQALQDWNSRGDRTVLVIAHRLQTVQRAHQILVLQEGKLQKLAQL

System: HLA class I (A2) on T2 cells
Experiment: restoration of surface expression of HLA class I (A2) on transfected T2 cells, flow cytometry
Assay type: cell-based, human
Settings: T2 cells transfected with the named cDNAs; for Mean fluorescence of HLA class 1 (A2) Mean ± SD: four separate experiments, at least three stable clones; for surface expression of HLA/MHC class I: in words
Procedure: Plasmid DNAs were prepared using MAXI-PREP kits (Qiagen). TAP1- and TAP2-deficient T2 cells (donated by P. Cresswell, Howard Hughes Medical Institute, Yale University) (1-2×10^7 cells/ml) were transfected by electroporation with 10 μg of TAP1 and TAP2 or TAP2iso linear plasmid DNA in a 0.4-cm cuvette at 260 V and 960 μF. Subcloning and selection of transfectants were performed by culturing in the presence of hygromycin (250 μg/ml) or histidinol ([…]) for the PREP 4 and PREP8 vectors, respectively.
Immune complexes were detected with fluorescein isothiocyanate-conjugated goat anti-mouse IgG antibodies (Coulter, Hialeah, Fla.) and an Epics Elite flow cytometer (Coulter).
T2 cells were transfected with TAP1 cDNA in combination with TAP2 or TAPiso cDNAs as described above.

| Molecule | Mean fluorescence of HLA class 1 (A2) Mean ± SD | surface expression of HLA/MHC class I |
| --- | --- | --- |
| B1 | 5.19 ± .35 | no effect |
| B2 | 7.59 ± .31 | restored surface expression |
